Source: article PMC5552956, “The PAS domains of the major sporulation kinase in Bacillus subtilis play a role in tetramer formation that is essential for the autokinase activity” (MicrobiologyOpen, 2017)
Where “and” joins values, the source holds several entries; their conditions need not be identical. Equal entries are not always repeated. Blank lines part the entries; values can stand above or below the molecule they belong to.

Legend:
[1] = biological target: PAS-BC-GFP-his6 (Bacillus subtilis); experiment: native gel or EMSA; blue native PAGE (4-16% gradient gel) of Ni-NTA eluates, immunoblot with anti-GFP antibodies; sizes from a regression line of NativeMark standards
[2] = biological target: KinA^ΔPAS-A-GFP (Bacillus subtilis); experiment: cross-linking; cell extracts of B. subtilis lacking native kinA (LB, 10 μmol/L IPTG) incubated with or without bis-maleimidohexane (BMH, sulfhydryl-specific); SDS-PAGE (10%), immunoblot with anti-GFP antibodies; sizes from a regression line of mass standards
[3] = biological target: KinAN-GFP (Bacillus subtilis); experiment: as above
[4] = biological target: KinAN-GFP-his6 (Bacillus subtilis); experiment: native gel or EMSA; blue native PAGE (4-16% gradient gel) of Ni-NTA eluates, immunoblot with anti-GFP antibodies; sizes from a regression line of NativeMark standards
[5] = biological target: the molecule itself; experiment: cross-linking; cell extracts of B. subtilis lacking native kinA (LB, 10 μmol/L IPTG) incubated with or without bis-maleimidohexane (BMH, sulfhydryl-specific); SDS-PAGE (10%), immunoblot with anti-GFP antibodies; sizes from a regression line of mass standards

Molecule: KinAN-GFP-his6 (domain or fragment)
- stoichiometry N [4]: 4 and 2

B1: KinA^ΔPAS-AB-GFP (domain or fragment, Bacillus subtilis, UniProt P16497 259-606, looked up)
chain: QTILQKSRERYQLLIQNSIDTIAVIHNGKWVFMNESGISLFEAATYEDLIGKNIYDQLHPCDHEDVKERIQNIAEQKTESEIVKQSWFTFQNRVIYTEMVCIPTTFFGEAAVQVILRDISERKQTEELMLKSEKLSIAGQLAAGIAHEIRNPLTAIKGFLQLMKPTMEGNEHYFDIVFSELSRIELILSELLMLAKPQQNAVKEYLNLKKLIGEVSALLETQANLNGIFIRTSYEKDSIYINGDQNQLKQVFINLIKNAVESMPDGGTVDIIITEDEHSVHVTVKDEGEGIPEKVLNRIGEPFLTTKEKGTGLGLMVTFNIIENHQGVIHVDSHPEKGTAFKISFPKK
notes: KinA of Bacillus subtilis without PAS-A and PAS-B; 'our autokinase-deficient PAS-AB mutant (aa 259-606)'; also called MF3356; source: B. subtilis lacking the native kinA gene, IPTG-inducible promoter (10 μmol/L IPTG, LB), in cell extract
- stoichiometry N [5]: 2

B2: full-length KinA-GFP (natural protein, Bacillus subtilis, UniProt P16497 1-606, looked up)
chain: MEQDTQHVKPLQTKTDIHAVLASNGRIIYISANSKLHLGYLQGEMIGSFLKTFLHEEDQFLVESYFYNEHHLMPCTFRFIKKDHTIVWVEAAVEIVTTRAERTEREIILKMKVLEEETGHQSLNCEKHEIEPASPESTTYITDDYERLVENLPSPLCISVKGKIVYVNSAMLSMLGAKSKDAIIGKSSYEFIEEEYHDIVKNRIIRMQKGMEVGMIEQTWKRLDGTPVHLEVKASPTVYKNQQAELLLLIDISSRKKFQTILQKSRERYQLLIQNSIDTIAVIHNGKWVFMNESGISLFEAATYEDLIGKNIYDQLHPCDHEDVKERIQNIAEQKTESEIVKQSWFTFQNRVIYTEMVCIPTTFFGEAAVQVILRDISERKQTEELMLKSEKLSIAGQLAAGIAHEIRNPLTAIKGFLQLMKPTMEGNEHYFDIVFSELSRIELILSELLMLAKPQQNAVKEYLNLKKLIGEVSALLETQANLNGIFIRTSYEKDSIYINGDQNQLKQVFINLIKNAVESMPDGGTVDIIITEDEHSVHVTVKDEGEGIPEKVLNRIGEPFLTTKEKGTGLGLMVTFNIIENHQGVIHVDSHPEKGTAFKISFPKK
notes: Sporulation kinase KinA, Bacillus subtilis (strains derived from PY79), full length; Tetramer by BMH cross-linking; also called MF3352; source: B. subtilis lacking the native kinA gene, IPTG-inducible promoter (10 μmol/L IPTG, LB), in cell extract
- stoichiometry N [5]: 4

Continued, values first:

- stoichiometry N [1]: 4 and 2
Molecule: PAS-BC-GFP-his6 (domain or fragment)

- stoichiometry N [2]: 4
Molecule: KinA^ΔPAS-A-GFP (domain or fragment)

- stoichiometry N [3]: 4
Molecule: KinAN-GFP (domain or fragment)
